Measured values reported in the supplement of paper PMC10567573.

B1: SETD8 (parent)
chain: FVVEYHGDLIEITDAKKREALYAQ

Variants of: B1
Assay: protein stability index of a GFP-peptide fusion (GPS, HEK-293T) (PSI 1-6); higher = more stable
Settings: c terminus: a fixed tail appended
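Further: lentivirally expressed fusions sorted by FACS into six bins by GFP to DsRed ratio, PSI derived from sequencing read proportions per bin multiplied by bin number.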

Variant	protein stability index
FVVEYHGDLILITDAKKREALYAQ	3.14
FVVEYHGDLIQITDAKKREALYAQ	2.51
FVVEYHGDLISITDAKKREALYAQ	2.25
FVVEYHGDLIRITDAKKREALYAQ	1.37
FVVEYHGDLIKITDAKKREALYAQ	2.1
FVVEYHGDLIMITDAKKREALYAQ	2.49
FVVEYHGDLIYITDAKKREALYAQ	2.56
FVVEYHGDLIHITDAKKREALYAQ	2.25
FVVEYHGDLITITDAKKREALYAQ	2.43
FVVEYHGDLIVITDAKKREALYAQ	1.96
FVVEYHGDLIPITDAKKREALYAQ	2.62
FVVEYHGDLINITDAKKREALYAQ	2.04
FVVEYHGDLIFITDAKKREALYAQ	2.92
FVVEYHGDLIEITRAKKREALYAQ	1.72
FVVEYHGDLIEITMAKKREALYAQ	1.95
FVVEYHGDLIEITGAKKREALYAQ	3.5
FVVEYHGDLIEITHAKKREALYAQ	1.52
FVVEYHGDLIEITPAKKREALYAQ	1.37
FVVEYHGDLIEITFAKKREALYAQ	2.45
FVVEYHGDLIEITLAKKREALYAQ	1.16
FVVEYHGDLIEITIAKKREALYAQ	2.69
FVVEYHGDLIEITEAKKREALYAQ	2.75
FVVEYHGDLIEITCAKKREALYAQ	1.46
FVVEYHGDLIEITSAKKREALYAQ	1.88

Variant	protein stability index
FVVEYHGDLIEITQAKKREALYAQ	2.13
FVVEYHGDLIEITKAKKREALYAQ	2.58
FVVEYHGDLIEITAAKKREALYAQ	2.08
FVVEYHGDLIEITWAKKREALYAQ	1.31
FVVEYHGDLIEITVAKKREALYAQ	1.45
FVVEYHGDLIEITTAKKREALYAQ	1.21
FVVEYHGDLIEITNAKKREALYAQ	1.65
FVVEYHGDLIECTDAKKREALYAQ	2.1
FVVEYHGDLIENTDAKKREALYAQ	2.54
FVVEYHGDLIEPTDAKKREALYAQ	2.36
FVVEYHGDLIELTDAKKREALYAQ	2.55
FVVEYHGDLIEQTDAKKREALYAQ	2.77
FVVEYHGDLIEFTDAKKREALYAQ	2.21
FVVEYHGDLIEYTDAKKREALYAQ	1.56
FVVEYHGDLIEKTDAKKREALYAQ	2.75
FVVEYHGDLIESTDAKKREALYAQ	2.09
FVVEYHGDLIEWTDAKKREALYAQ	2.45
FVVEYHGDLIEATDAKKREALYAQ	1.98
FVVEYHGDLIEGTDAKKREALYAQ	1.64
FVVEYHGDLIEVTDAKKREALYAQ	2.18
FVVEYHGDLIEETDAKKREALYAQ	2.74
FVVEYHGDLIEHTDAKKREALYAQ	2.48
FVVEYHGDLIETTDAKKREALYAQ	2.02
FVVEYHGDLIEDTDAKKREALYAQ	2.22

Variant	protein stability index
FVVEYHGDLIEMTDAKKREALYAQ	1.72
FVVEYHGDLIERTDAKKREALYAQ	2.48
FVVEYHGDLIEITDMKKREALYAQ	2.69
FVVEYHGDLIEITDYKKREALYAQ	1.13
FVVEYHGDLIEITDLKKREALYAQ	1.93
FVVEYHGDLIEITDRKKREALYAQ	3.06
FVVEYHGDLIEITDNKKREALYAQ	1.43
FVVEYHGDLIEITDKKKREALYAQ	2.33
FVVEYHGDLIEITDEKKREALYAQ	2.08
FVVEYHGDLIEITDSKKREALYAQ	1.88
FVVEYHGDLIEITDGKKREALYAQ	2.23
FVVEYHGDLIEITDHKKREALYAQ	1.87
FVVEYHGDLIEITDFKKREALYAQ	2.25
FVVEYHGDLIEITDQKKREALYAQ	2.22
FVVEYHGDLIEITDIKKREALYAQ	2.04
FVVEYHGDLIEITDCKKREALYAQ	1.67
FVVEYHGDLIEITDPKKREALYAQ	2.73
FVVEYHGDLIEITDTKKREALYAQ	1.51
FVVEYHGDLIEITDDKKREALYAQ	1.82
FVVEYHGDLIEITDWKKREALYAQ	2.37
FVVEYHGDLIEITDVKKREALYAQ	2.3
FVVEYHGDLIEINDAKKREALYAQ	1.96
FVVEYHGDLIEILDAKKREALYAQ	2.63
FVVEYHGDLIEIQDAKKREALYAQ	3.21

Variant	protein stability index
FVVEYHGDLIEIRDAKKREALYAQ	2.07
FVVEYHGDLIEIKDAKKREALYAQ	2.79
FVVEYHGDLIEISDAKKREALYAQ	2.46
FVVEYHGDLIEIEDAKKREALYAQ	1.76
FVVEYHGDLIEICDAKKREALYAQ	2.42
FVVEYHGDLIEIADAKKREALYAQ	1.73
FVVEYHGDLIEIMDAKKREALYAQ	1.5
FVVEYHGDLIEIHDAKKREALYAQ	2.02
FVVEYHGDLIEIGDAKKREALYAQ	1.41
FVVEYHGDLIEIYDAKKREALYAQ	1.78
FVVEYHGDLIEIFDAKKREALYAQ	3.25
FVVEYHGDLIEIIDAKKREALYAQ	2.24
FVVEYHGDLIEIPDAKKREALYAQ	2.65
FVVEYHGDLIEIVDAKKREALYAQ	3.05
FVVEYHGDLIEIDDAKKREALYAQ	1.97
FVVEYHGDLIEITDAGKREALYAQ	1.51
FVVEYHGDLIEITDADKREALYAQ	2.05
FVVEYHGDLIEITDAHKREALYAQ	2.3
FVVEYHGDLIEITDAFKREALYAQ	2.13
FVVEYHGDLIEITDAEKREALYAQ	2.08
FVVEYHGDLIEITDACKREALYAQ	1
FVVEYHGDLIEITDAAKREALYAQ	1.7
